Test results taken from the supplement of paper PMC9170038.

Test system: MS2 coat protein
Assay: apparent KD of MS2 coat protein; higher = weaker reporter binding
Conditions: Eterna round: R107
Method: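 RNA-MaP round R107: designed RNA switches with theophylline, tryptophan, arginine or FMN aptamers are transcribed on-chip within common flanks. They are titrated with SNAP-549-labelled MS2 coat protein in RNA-MaP buffer (100 mM Tris pH 7.5, 80 mM KCl, 4 mM MgCl2), without ligand or with the indicated ligand. Median apparent KD per design.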

[1] = input ligand: theophylline 20 uM
[2] = input ligand: theophylline 2 mM
[3] = input ligand: tryptophan 2.4 mM

Sequence	apparent KD of MS2 coat protein (input ligand: arginine 13.2 mM) [nM]	apparent KD of MS2 coat protein (input ligand: none) [nM]	apparent KD of MS2 coat protein [1] [nM]	apparent KD of MS2 coat protein [2] [nM]	apparent KD of MS2 coat protein [3] [nM]
AACGUAUACAGAAGGAGCGUGAUUUGUGUUACUCAUUCAUAUACAUGAGGAUCACCCAUGUCACAGGUAGGUCGCUGUAUUCGUA [JR_ExcArginiB_Sub022]	39.8	166	128	87.1	53.8
AACUACUCGAGGUGAUCCUACGAGUGGCAACGAGGACCGGUACGGCCGCCACUCGAAUAAACAUGAGGAUCACCCAUGUACAAAU [T''-M'-T'-T-MS2 - Design 12]	92.2	–	259	220	–
AAGGUGAUCCUCGAUACCAGCUCAACAUGAGGAUCACCCAUGUAAGCCUGGAAACAGGCGAGCCCUUGGCAGCGAGUUACAUCAA [(M)'-(Theo1)-(Ms2)-(Theo2)-(M'')]	32.9	–	78.2	–	18.6
AAGUAAACAUGAGCAAAGCUCAUGUGCGAAGGAGCGGCGGAAACGCCAGGUAGGUCGCGCACAUGAGCAUCAGCCAUGUGUAUCA [Omei Arginine B SS A v2]	45.3	31	33.5	22.1	9
AAGUGGCACGGAAGGAGCGAGUUUACCUAUUACAUGAGGAUCACCCAUGUGUAUAAUGGGACUCAGGUAGGUCGCCGUUGUCACU [Same State Arginine B GF 25]	31.5	35.7	49	44.3	31.6
AAUAAACAUGAGGAUCACCCAUGUAGGGUGCGAGGACCGGUACGGCCGCCACUCGGGUGAAAACAUGAGGAUCACCCAUGUUAAA [Cloverleaf #DoubleMS2 #GUTurnoff]	75.5	–	176	229	–
AAUAAAUCGCCUGAUACCAGCGCUGGCGGACAUGAGGAUCACCCAUGUGUUACAGGCGGACGCCCUUGGCAGCGGAGCGGGAUCU [U-Shape]	16.2	20.2	21.4	23	19.6
AAUAACAAGAGGAUCACCCUUGUAAAAGAUACCAGAGUGAUGAUCCUCCCUUGGCAGCUUAACGCUGAUUGAUUACAAUCAGCGA	27	35.5	81.8	142	32
AAUAAUAACUGAAGGAGCGUCUAUAUUACAUGAGGAUCACCCAUGUUUAUAUGGUAUUAUAGACAGGUAGGUCGCAGAUUUUUUA [JR_SSArginiB_Sub016]	14.5	16.6	22.1	18.6	16.3
AAUAAUAAGGCGGCCGCCACUACACAUGAGGAUCACCCAUGUCUCGCGGGCUUGCGUUGGGAUUGUAGGACCGGGCCAAUAAUAA [Exclusion - Tryptophan B (Freestyle 11)]	15.2	–	35.7	30.4	–
AAUGCCGGAUCGGCCGCCACUGGUUGGCUCUGUGUACAUGAGGAUCACCCAUGUCCAUCCCAAACCAGGACCGGGAUCUUUGUGU [Veonmale]	14.6	–	17.4	13.5	–
AAUGCUGCCAAGGAUUCCUCAUGAGCAGAUACCAGCUAGGAAACUAGCCCUUGGCAGCUGCAACAUGAGGAUCACCCAUGUAAUA [(T)'-(M)'-(T1)-(T2)-(M1)-(M2)_Design7]	31	–	94.2	–	35.7
AAUGGCCGUACCGGAAGGGUGAUCCUCAAACGAGGACCGGUACGGCCGCCACUCGAUAACAUGAGGAUCACCCAUGUAAUAAUAA [|T'-M'-Trp-Ms2|_Design13]	85	–	481	677	–
AAUGUAAUAGUCGUACUCUUACACUGAGAAGGAGCGCGAAAGUUCGCAGGUAGGUCGCUCAGUUAUACAUGAGGAUCACCCAUGU [Bebemaata]	24.1	24.8	28.3	27.9	24.1
AAUGUAUGGCACAUGAGGAUCACCCAUGUGCGAGGACCGGUACGGCCGCCACUCGGUCCUGGGUUCUUAUUACUAUACAUUAAUG [XTryp A #15]	9.78	11	16	14.4	27.1
AAUUCCUAACAUGAGGAUCACCCAUGUGAAGGAGCGCCGAAUAAGGCAGGUAGGUCGCACAUGGAACUGCUACGAAAGUAGAAAA [XArg-A 4 V2mod]	19.2	16.2	23.3	35.1	18.8
ACACAUGAGGAUCACCCAUGUAAAGUUGAAGGAGCGAUCAUUAGGUCAGGUAGGUCGCAGCACAUGAGGAUCACCCAUGUCGUGA [DOUBLE!!! :-D #2]	31.3	96.1	85.5	73.7	86.9
ACACCAUACAUGAGGAUCACCCAUGUUACACGAGGACCGGUACGGCCGCCACUCGAAUUCAGGAAACCUCGGAUAAUAUUGUGAA [JR_SS-TryptA_Sub001]	22.3	–	50.1	32.4	–
ACAUGAAUAUCAUCUAUUUAUUGUACUGAAGGAGCGUCCAUGAGGACAGGUAGGUCGCAGUGUAAAACAUGAGGAUCACCCAUGU [Same State - Arginine A #1]	22.6	22.2	36.6	29	23

Sequence	apparent KD of MS2 coat protein (input ligand: arginine 13.2 mM) [nM]	apparent KD of MS2 coat protein (input ligand: none) [nM]	apparent KD of MS2 coat protein [1] [nM]	apparent KD of MS2 coat protein [2] [nM]	apparent KD of MS2 coat protein [3] [nM]
ACAUGAGGAUCACCCAUGUAACAAACAGAAGGAGCGUGAAAGAACACAGGUAGGUCGCUGAACUUAAUGAAUACUCAUUAGAUCC [JR_Nu_SSArginiA_Sub027]	13.4	14.7	18.9	15.8	14.6
ACAUGAGGAUCACCCAUGUAAUCAUCAGAAGGAGCGUGGAAUAACACAGGUAGGUCGCUGAUGUUAUAUUAAUCUUAUUCGUAAA [JR_ExcArginiA_Sub003]	22	13.6	18.7	13.2	14.2
ACAUGAGGAUCACCCAUGUACUGGAUCUAACGAGGACCGGUACGGCCGCCACUCGAAGAUAGGACUAUGGAAACAUAGCUUAUCA [Design 1]	15.3	15.3	19.9	18.4	14.6
ACAUGAGGAUCACCCAUGUAGCGUAGGGAAGGAGCGGAAUAAAGUCCAGGUAGGUCGCCCAUAUGAUGAUCUCACUUAUUAUCGA [#12 Same State - Arginine A]	27.7	31	42.5	42.2	30.5
ACAUGAGGAUCACCCAUGUAGUGGCACGAUACCAGCUGAUCCCGUGGCCCUUGGCAGCGUCCGGUGUGGUGCGCCGGGUUGGAGC [BBBMULLIN]	38	–	77.4	–	48.9
ACAUGAGGAUCACCCAUGUCAGGGCACGAUACCAGCUGAUCCGGUGGCCCUUGGCAGCGUGACGAGUGGUCAUGAGGAUCACACG [?fmullin]	75.8	128	176	158	130
ACAUGAGGAUCACCCAUGUCAGGGCACGAUACCAGCUGAUCCGGUGGCCCUUGGCAGCGUGACGUUUGGUCCCGCGGAUCACACG [xxmullin]	92.4	326	262	334	404
ACAUGAGGAUCACCCAUGUGAGAUAGGGAAGGAGCGCAGGAGGAUGCAGGUAGGUCGCCCACAUGAGGAUCACCCGUGUCUGGAG [#11 Exclusion - Arginine A]	33.2	43.4	33	62.4	33.1
ACAUGAGGAUCACCCAUGUGCAGCACGGAUACCAGCGUCCUAGUGCGCCCUUGGCAGCCGGACAUGAGGAUCACCCAUGUGUGGG [Exclusion Theophylline A GF30]	50.2	–	135	–	95.7
ACAUGAGGAUCACCCAUGUGGCGUCUUGAUACCAGACGAGAAGUAGUCCCUUGGCAGCAAAUACGUGAGGAUCACACAUGUGCGA [cccmullin3]	24.4	–	30.9	–	29
ACAUGAGGAUCACCCAUGUUCCUCGCCGAUACCAGUGAAGAAGUACGCCCUUGGCAGCGGAAAGAGUAUUUUGGAGAUGAGGUAC [6.Y]	57	–	94.3	–	88.3
ACAUGAGGAUCACCCAUGUUUGAUGUUCCUCGAGGACCGGUACGGCCGCCACUCGAACGAGUGGCGCGCGAGCGCGCGCUCGCGC [aRa]	11.4	–	20.3	14.8	–
ACAUGAGGAUCACCCAUGUUUGUUGUUCCUCGAGGACCGGUACGGCCGCCACUCGAACGAGUGGCGCGCGCGCGCGCGCGCGCGC [aMa]	11.6	13.3	36.4	16.4	12.6
ACAUUGCGCUCGGCCGCCACUGGCUUAUGAUUAUAAGCAUUAAUGAACAUGAGGAUCACCCAUGUCAGGACCGGGAGCGAACCAU [SSTryp B #7]	13.6	–	17.7	14.9	–
ACCGGCACCUAGGAUACCAGAUCCACAACAAACAUGAGGAUCACCCAUGUAUAAAGUGGUAUCCCUUGGCAGCCUGUGACAAUCG [theeternabot_sameState_MS2_Theo_B_19]	17	–	21.4	–	15.8
ACCUGUACGAAAAGUGCAGGACACGGAAUACGAGGACCGGUACGGCCGCCACUCGGAACCUGAGGAUCACCCUGGUAAAACCGUG [TrypAS 13 #AlternativeMS2 #Zipper #StaticStem]	19.9	17.8	22.6	24	19.5
ACGAACGCACCUGAGGAUCACCCGGGUGAUACCAGCCUGGAAACAGGCCCUUGGCAGCACCUAAAAUAAAGGUAACGUUCGAAUA [TheoAX9 #MicroSwitchBubble #AlternativeMS2]	116	335	234	590	303
ACGACGCAUAGUGAUACCAGUAGAACAUGAGGAUCACCCAUGUCUGUUAUGUACAAAUACUGCCCUUGGCAGCACUAUGCGUCAG [SSTheo B #5]	9.85	–	12.1	–	11.6
ACGAGACGUCUGGAUACCAGCCCAGCGAUAAACAUGAGGAUCACCCAUGUCAAACCACCCGGCCCUUGGCAGCCACGUACCUCAC [theeternabot_sameState_MS2_Theo_B_10]	15.9	–	19.1	–	14.9
